# Source: paper PMC6803030 (Inorganic chemistry, 2019)
# Positions count from the first letter of the chain named. Names and notes keep the numbering of the source. Read-outs that look alike come from different tables or passages of the source.
# T1: mS100A9 (murine S100A9 subunit of calprotectin) (murine, UniProt P31725 1-113)
# T1 sequence (looked up): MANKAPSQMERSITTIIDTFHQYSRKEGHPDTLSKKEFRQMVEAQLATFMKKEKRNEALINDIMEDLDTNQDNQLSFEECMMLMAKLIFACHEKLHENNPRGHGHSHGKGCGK
# T2: mS100A9(H103A) (murine, UniProt P31725 2-113, H103A)
# T2 sequence (looked up): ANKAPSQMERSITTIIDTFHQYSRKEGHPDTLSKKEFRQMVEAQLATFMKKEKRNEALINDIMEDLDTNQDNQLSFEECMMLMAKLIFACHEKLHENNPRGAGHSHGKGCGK
# T3: mS100A9(H103A)(H105A) (murine, UniProt P31725 2-113, H103A | H105A)
# T3 sequence (looked up): T2 sequence (looked up) with H104A
# T4: mS100A9(H103A)(H107A) (murine, UniProt P31725 2-113, H103A | H107A)
# T4 sequence (looked up): T2 sequence (looked up) with H106A
# T5: mS100A9(H105A)(H107A) (murine, UniProt P31725 2-113, H105A | H107A)
# T5 sequence (looked up): T2 sequence (looked up) with A102H, H104A, H106A
# T6: mS100A9(H105A) (murine, UniProt P31725 2-113, H105A)
# T6 sequence (looked up): T2 sequence (looked up) with A102H, H104A
# T7: mS100A9(H107A) (murine, UniProt P31725 2-113, H107A)
# T7 sequence (looked up): T2 sequence (looked up) with A102H, H106A
# B1: mS100A8 (murine S100A8 subunit of calprotectin) (natural protein, UniProt P27005 1-89, looked up)
# chain: MPSELEKALSNLIDVYHNYSNIQGNHHALYKNDFKKMVTTECPQFVQNINIENLFRELDINSDNAINFEEFLAMVIKVGVASHKDSHKE
# B2: mCP(H103A), mS100A8/mS100A9(H103A) (complex, murine)
# chain 1: B1 chain
# chain 2: T2 sequence (looked up)
# B3: mCP(H103A)(H107A), mS100A8/mS100A9(H103A)(H107A) (complex, murine)
# chain 1: B1 chain
# chain 2: T2 sequence (looked up) with H106A
# B4: mCP(H105A), mS100A8/mS100A9(H105A) (complex, murine)
# chain 1: B1 chain
# chain 2: T2 sequence (looked up) with A102H, H104A
# B5: mCP(H107A), mS100A8/mS100A9(H107A) (complex, murine)
# chain 1: B1 chain
# chain 2: T2 sequence (looked up) with A102H, H106A
# B6: mCP ∆His3Asp variant, mS100A8(H83A)(H87A)/mS100A9(H21A)(D31A) (complex, murine)
# chain 1: B1 chain with H83A, H87A
# chain 2: T2 sequence (looked up) with H20A, D30A, A102H
# B7: mCP(H103A)(H105A), mS100A8/mS100A9(H103A)(H105A) (complex, murine)
# chain 1: B1 chain
# chain 2: T2 sequence (looked up) with H104A
# B8: murine calprotectin (mS100A8/mS100A9 heterodimer) (complex)
# chain 1: B1 chain
# chain 2: T1 sequence (looked up)
# B9: mCP(H105A)(H107A), mS100A8/mS100A9(H105A)(H107A) (complex, murine)
# chain 1: B1 chain
# chain 2: T2 sequence (looked up) with A102H, H104A, H106A
# Key:
# Experiment in all cases: SEC
# [1] = target: T1, mS100A9 (murine S100A9 subunit of …)
# mS100A9(H103A) = target: T2, mS100A9(H103A)
# mS100A9(H103A)(H105A) = target: T3, mS100A9(H103A)(H105A)
# mS100A9(H103A)(H107A) = target: T4, mS100A9(H103A)(H107A)
# mS100A9(H105A)(H107A) = target: T5, mS100A9(H105A)(H107A)
# mS100A9(H105A) = target: T6, mS100A9(H105A)
# mS100A9(H107A) = target: T7, mS100A9(H107A)
# SEC [2] = target: the molecule itself
# SEC [3] = target: the molecule itself; remark: listed apart in the source
binder,measurement,setting,value
B1,binding result,[1],binds
same,binding result,mS100A9(H103A),binds
same,binding result,mS100A9(H103A)(H105A),binds
same,binding result,mS100A9(H103A)(H107A),binds
same,binding result,mS100A9(H105A)(H107A),binds
same,binding result,mS100A9(H105A),binds
same,binding result,mS100A9(H107A),binds
B2,binding result,SEC [2],binds
B3,binding result,SEC [2],binds
B4,binding result,SEC [2],binds
B5,binding result,SEC [2],binds
B6,binding result,SEC [2],binds
B7,binding result,SEC [2],binds
B8,binding result,SEC [3],binds
B9,binding result,SEC [2],binds
